Here are results for 133 substances from the supplement of paper PMC12042874.

± gives the uncertainty stated by the source.

This data set can be described thus: amyloid nucleation score (Sup35N fusion, yeast selection) (log enrichment); library NNK3; higher = more nucleation; inactive = no reads after selection. A digest of the protocol:
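On medium lacking adenine and uracil, psi-negative yeast expressing peptides of 20 random codons fused to Sup35N were grown 7 days at 30°C after a 24-hour induction with 100 μM copper sulfate. Illumina sequencing of input and output plasmid inserts gave the reads, and sequences under 100 input reads were excluded. The nucleation score is the DiMSum log enrichment of output over input reads, centred on the mode score of non-aggregating sequences.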
As to FRYPLNYN, the amyloid nucleation score entry was “inactive”.

In the case of FRYVHIHLRYQPGF, the amyloid nucleation score result was “inactive”.

In turn, FSALMIY registered an amyloid nucleation score of 0.015 ± 0.32.

Regarding FSCIKTRMVGYSLRLNQFVD, the amyloid nucleation score result is “inactive”.

As to FSFNAG, the amyloid nucleation score entry is “inactive”.

On to FSFPMEIWKGFVYRTA, for which the amyloid nucleation score stood at 3.16 ± 0.081.

Consider FSILAFMSDLLS, for which the amyloid nucleation score entry was “inactive”.

Take FSIPCDFDDNFATQELS: the amyloid nucleation score entry is “inactive”.

Take FSLFLTLFHFFHTRLAACLL: the amyloid nucleation score result was “inactive”.

On to FSLVAKMSFESLATNRWDSR, for which the amyloid nucleation score turned out to be 1.41 ± 0.15.

Take FSLVMDCI: the amyloid nucleation score entry is “inactive”.

FSMSPSTTYRAFGHYSPGQH had an amyloid nucleation score of -0.074 ± 0.5.

Turning to FSNSSGNGEGDLRENLQNKM, the amyloid nucleation score entry was “inactive”.

As to FSQWT, the amyloid nucleation score result is “inactive”.

Take FSRTSCVGDCYCGAYNRLSG: the amyloid nucleation score worked out at 2.02 ± 0.095.

Turning to FSSQYMSCIVRRHGGNLDAC, the amyloid nucleation score was determined as 0.033 ± 0.39.

In the case of FSSRKSLCGLDLKECFTSVE, the amyloid nucleation score result was “inactive”.

FSTVKQLYCFMTPIYASFNS: the amyloid nucleation score is -0.531 ± 1.

As to FSTVTYQGVTALVNQSSVTT, the amyloid nucleation score entry was “inactive”.

As for FSVHRGLLFITQGSDVAEHV, the amyloid nucleation score result was “inactive”.

Regarding FSYCG, the amyloid nucleation score result is “inactive”.

Take FSYLLYRRNDTCPQALRLRR: the amyloid nucleation score entry was “inactive”.

Consider FSYRPSNCYIR, for which the amyloid nucleation score result was “inactive”.

Consider FTEKGGLPC, for which the amyloid nucleation score entry is “inactive”.

Substance FTFGCSLCTMYTANSHFRGC registered an amyloid nucleation score of 1.87 ± 0.061.

Take FTFNSWSSWWNTSSFLIKGQ: the amyloid nucleation score entry is “inactive”.

In the case of FTGAMAFFLWFIQDYWFTGW, the amyloid nucleation score result is “inactive”.

Take FTHNHK: the amyloid nucleation score result is “inactive”.

Regarding FTIGRYILFVMKDFVFLWFV, the amyloid nucleation score entry was “inactive”.

Regarding FTPARRLSRLIVFCFG, the amyloid nucleation score result is “inactive”.

FTRNEQP: the amyloid nucleation score result was “inactive”.

FTRTREMENCNFLNFYRYMV: the amyloid nucleation score result was “inactive”.

With FTSKKLLCLDKPFNIGDCGY, the amyloid nucleation score entry is “inactive”.

On to FTTRFTFTIP, for which the amyloid nucleation score came out at 1.24 ± 0.17.

Regarding FTYVLTLMSFNGGPRGRYGW, the amyloid nucleation score is 2.66 ± 0.068.

Regarding FVCLLCPMYYVHSTMWMSAR, the amyloid nucleation score amounted to 2.01 ± 0.057.

As for FVCLSNIHMGTKTVILAMCL, the amyloid nucleation score result is “inactive”.

For FVEYSSVQYAACNLDRLFLF, the amyloid nucleation score entry was “inactive”.

On to FVGHDTELNPHGRYGCLD, for which the amyloid nucleation score result was “inactive”.

Consider FVGYINILLIADSALGVRIL, for which the amyloid nucleation score was 1.64 ± 0.076.

For FVLICGYFIFIWTVSFNCYW, the amyloid nucleation score entry was “inactive”.

Turning to FVMGMNAVQRSLSSIYTLCV, the amyloid nucleation score entry is “inactive”.

Regarding FVQNDNYKWVWL, the amyloid nucleation score result is “inactive”.

For the substance FVRGTVWKSTGDVMDAVPAT, the amyloid nucleation score result was “inactive”.

Consider FVSSYNIENV, for which the amyloid nucleation score entry is “inactive”.

Take FVSVLACSDKLGK: the amyloid nucleation score result is “inactive”.

FVTFGYQWYRRVAGALGCLE yielded an amyloid nucleation score of 0.37 ± 0.57.

Regarding FVTYDPYTFIDYFIVSHPRL, the amyloid nucleation score amounted to 0.61 ± 0.17.

Take FVVELCVDPTFKLYD: the amyloid nucleation score result is “inactive”.

Take FVVGIFYSIQYIECSRVSSY: the amyloid nucleation score was -0.106 ± 0.55.

Turning to FVVKYNWRYDLLIPYQMDLI, the amyloid nucleation score result was “inactive”.

Take FVVWCDVTGS: the amyloid nucleation score entry is “inactive”.

FVWNERWKIRLYLMSFGRGR registered an amyloid nucleation score of 2.35 ± 0.065.

On to FVYFFCVSLTSSSPSDCDWP, for which the amyloid nucleation score amounted to 1.6 ± 0.069.

Turning to FVYSMKSCSYRDLGLNSYLL, the amyloid nucleation score entry is “inactive”.

For FWAYERVGSRSAFGWLGREA, the amyloid nucleation score is 0.705 ± 0.21.

As for FWFFTSMLVSVCLMRASRCL, the amyloid nucleation score entry was “inactive”.

Turning to FWFFYNICRMLKSVT, the amyloid nucleation score entry is “inactive”.

With FWHNSG, the amyloid nucleation score entry is “inactive”.

With FWKACTCI, the amyloid nucleation score entry is “inactive”.

In the case of FWKWL, the amyloid nucleation score result was “inactive”.

As to FWLLVFPGNMMSS, the amyloid nucleation score is 0.818 ± 0.14.

For FWSGIWSNTFRFYGAVIWPG, the amyloid nucleation score result was “inactive”.

FYAYVSVDTVCSVAICLICT: the amyloid nucleation score entry is “inactive”.

Turning to FYFWLASLCSSDFSFYKVKL, the amyloid nucleation score entry is “inactive”.

FYGLYFYHSVH: the amyloid nucleation score entry is “inactive”.

Take FYHDMIWTILLDYTRRFHKL: the amyloid nucleation score result is “inactive”.

In the case of FYIICWWVLDQDFCAWL, the amyloid nucleation score entry is “inactive”.

Take FYLIRKTIFLGSISLVWYGV: the amyloid nucleation score entry was “inactive”.

Consider FYMAKRICKVQHGVNGPYAK, for which the amyloid nucleation score result is “inactive”.

With FYMFDSRLLFWRYCCWKFSY, the amyloid nucleation score entry is “inactive”.

With FYPKQYQKLSYVWWY, the amyloid nucleation score result is “inactive”.

Take FYRSLGMYRDWTMSIFGKYL: the amyloid nucleation score entry is “inactive”.

In the case of FYSFCQSKSLMTFSGDLPPS, the amyloid nucleation score entry is “inactive”.

For FYSLIMHLKRLSYVA, the amyloid nucleation score entry is “inactive”.

Substance FYVNCFSL had an amyloid nucleation score of 1.01 ± 0.11.

Substance FYVTMTAASFPDFRHCVVND came in with an amyloid nucleation score of 0.01 ± 0.57.

Turning to FYYPRS, the amyloid nucleation score result is “inactive”.

In turn, GACVKDSLVAGNSSMTSAGL displayed an amyloid nucleation score of 3.9 ± 0.061.

Consider GAFMLEGAIRRFS, for which the amyloid nucleation score result was “inactive”.

Consider GAGPGLITMSNSN, for which the amyloid nucleation score result was “inactive”.

Turning to GASSIFLIVRSDGSYFSPD, the amyloid nucleation score result was “inactive”.

The substance GASVGFEVHCNFVVNLNVQH registered an amyloid nucleation score of 2.18 ± 0.066.

For GCDILQFRHCF, the amyloid nucleation score result is “inactive”.

Regarding GCFNGNSYRSLPFWFMSTCL, the amyloid nucleation score entry was “inactive”.

GCGVC displayed an amyloid nucleation score of -0.609 ± 0.98.

GCIRLGLNSVGVNNIVA: the amyloid nucleation score entry was “inactive”.

As for GCLYGSSSV, the amyloid nucleation score result is “inactive”.

The substance GCTFRNWIWWLHRFDKMR returned an amyloid nucleation score of 0.861 ± 0.15.

For GCVAAMS, the amyloid nucleation score entry is “inactive”.

In the case of GDLVSIWAMRFELRKSKEMR, the amyloid nucleation score entry was “inactive”.

Turning to GDNICQNVFTDGKVDAFFLT, the amyloid nucleation score result is “inactive”.

GDYGCFSLMQTHTEEEILMR: the amyloid nucleation score entry is “inactive”.

GDYSWSM: the amyloid nucleation score is 0.167 ± 0.42.

Consider GECWAPVYDFWI, for which the amyloid nucleation score entry is “inactive”.

With GERWVQKIQ, the amyloid nucleation score entry was “inactive”.

For GFCKIAAMGFAYHDGAFDGF, the amyloid nucleation score result was “inactive”.

Turning to GFCLQSNLCIIGRSFWTFLI, the amyloid nucleation score was 0.629 ± 0.55.

As for GFDMRVGDRMYRDYGMMVGA, the amyloid nucleation score entry is “inactive”.

With GFFYRDDARNFVLVTNSWRL, the amyloid nucleation score result is “inactive”.

For the substance GFIGK, the amyloid nucleation score entry is “inactive”.

For GFKDLWYCDGF, the amyloid nucleation score result is “inactive”.

For the substance GFRKWKLIVD, the amyloid nucleation score entry was “inactive”.

Consider GFSHANGHGTEKDFSSLIPV, for which the amyloid nucleation score result was “inactive”.

With GFYSLISQQQFVLNFNGYKM, the amyloid nucleation score came out at 2.34 ± 0.086.

As for GFYVCPMGCNEYRVLICSDS, the amyloid nucleation score result was “inactive”.

Consider GGENLTFLRSAFCSNWA, for which the amyloid nucleation score entry was “inactive”.

As for GGLSL, the amyloid nucleation score entry was “inactive”.

The substance GGLSS gave an amyloid nucleation score of -0.809 ± 0.71.

As for GGMGSLCSTREGMDWCPRGY, the amyloid nucleation score result was “inactive”.

On to GGRVNWM, for which the amyloid nucleation score entry is “inactive”.

Consider GGSIVVCLRHHRDLSMHSWD, for which the amyloid nucleation score result is “inactive”.

On to GGTNVFGAWSHNQRILCQKG, for which the amyloid nucleation score entry was “inactive”.

Turning to GGVHDSLNIYGFRYGLRKGV, the amyloid nucleation score entry is “inactive”.

GGWLLSEGLC: the amyloid nucleation score entry was “inactive”.

As for GGYVRSNCGRGVVPMVTRMA, the amyloid nucleation score result is “inactive”.

With GHCKCGPVGPNKRTAR, the amyloid nucleation score result is “inactive”.

For the substance GHIWFIAEVNSICYLLFLVS, the amyloid nucleation score entry was “inactive”.

As to GHKVSSIDNHFPILSSEAFK, the amyloid nucleation score entry was “inactive”.

Regarding GHSSSNMGNVHFKFLC, the amyloid nucleation score result was “inactive”.

With GIFIKFGYR, the amyloid nucleation score result is “inactive”.

Consider GIFSRPFRAGRGRVIHNGPD, for which the amyloid nucleation score result was “inactive”.

With GIFTLFYYVMMKLIFDFFTV, the amyloid nucleation score entry was “inactive”.

As to GIFVSMTLFILKILFARYVR, the amyloid nucleation score result was “inactive”.

As for GIIVLLVPETQCRCFGDLIR, the amyloid nucleation score result is “inactive”.

As to GILRIWNDLSLRFDKIWWG, the amyloid nucleation score result is “inactive”.

On to GILYGPCSFWDFVRLEMSRF, for which the amyloid nucleation score was -0.504 ± 0.8.

Regarding GIMDLDEGLET, the amyloid nucleation score result was “inactive”.

In the case of GISCNLYVINGICSWYFLVT, the amyloid nucleation score is 1.56 ± 0.07.

In the case of GISPQC, the amyloid nucleation score result was “inactive”.

In the case of GISRLFVGMKKAVTWSAKER, the amyloid nucleation score result is “inactive”.

For GISSKFRSPNRGNCYYRDIL, the amyloid nucleation score result was “inactive”.

Turning to GISYNSV, the amyloid nucleation score result was “inactive”.
